From paper PMC5894356 (Structure (London, England : 1993), 2018)

Biological target: the molecule itself
Test: crystal structure

B1: S. cerevisiae 5-aminolevulinic acid synthase (Hem1), PLP-cleaved ALAS 58-548 (enzyme)
chain: not shown
stoichiometry N: 2
